Measured values: patent publication US10441663B2, “Methods for treating cancer” (Bicycle Therapeutics Limited, priority 2016, dated 2019)
*1 amine or outer side, *2 acyl side, *3 side chain or, on linkers, in order; H or OH if unused. Where a SMILES comes first, the peptide text is derived from it. Bridges are numbered along the chain shown (N, C = ends). [ ]: non-standard residue; d: D form. The star is where a group is joined. ξ: configuration not given here. X2 = COc1cc2cc(c1Cl)N(C)C(=O)C[C@H](OC(=O)[C@H](C)N(C)C(=O)CCSC1CC(=O)N(CC3CCC(C(=O)*)CC3)C1=O)[C@@]1(C)O[C@H]1[C@H](C)[C@@H]1C[C@@](O)(NC(=O)O1)[C@H](OC)/C=C/C=C(\C)C2; 1Nal = N[C@@H](Cc1cccc2ccccc12)C(=O)O; TBMB = c1c(C[*:1])cc(C[*:3])cc1C[*:2]; Tle = CC(C)(C)[C@H](N)C(=O)O; ξA = CC(N)C(=O)O; Sar = CNCC(=O)O

Assays:
HT1080 cell line = assay: In vitro cytotoxicity, ATP endpoint assay after 72 hours incubation; format: cell-based; conditions: ATP endpoint, HT-1080 cells
Protocol: To evaluate the in vitro cytotoxicity of BT1718 and BT1721 in an HT1080 cell line using an ATP endpoint assay after 72 hours incubation.
Cells were seeded in 96 well plates (75 μl/well, HT1080=7500−15000 cell/well) and incubated overnight at 37° C.+5% CO2.
The day after cell seeding, serial dilutions (1:5) of BT1718 and BT1721 were prepared in DMSO and diluted 1:71 in cell culture media to give 4× final concentrations. Twenty five μl/well was added to the cells (2 μM or 5 μM top final concentration of BT1718 and 2 μM or 5 μM top final concentration of BT1721, <0.6% final DMSO).
Cells were 30-50% confluent upon dosing. Control wells containing 5 μM final concentration of staurosporine (positive control), lysis buffer (1% NP40, 20 mM Tris pH8, 137 mM NaCl, 10% glycerol, 2 mM EDTA, 1 mM Na Orthovanadate, 10 μg/ml leupeptin, 10 μg/ml aprotinin) positive control or media (negative control), were also included. Plates were sealed with gas permeable seals and incubated at 37° C.+5% CO2 for 72 hours. No wash steps were performed.
After a total of 72 hours after dosing, ATPLite reagent (Perkin Elmer) was equilibrated to room temperate and reconstituted in the supplied buffer as per the manufacturer's instructions. One hundred μl 1× detection reagent was added per well. Plates were sealed, protected from light and shaken gently for 20 minutes to ensure complete cell lysis before luminescence was read using a BMG Pherastar FS plate reader. […] Data was analysed using GraphPad Prism. Non-linear regression fit was used to calculate a relative IC50 for each toxic agent: Y=Bottom+(Top−Bottom)/(1+10^((Log Ic50−X)*HillSlope)) where the IC50 is defined as 50% of the total cell kill achieved at the top concentration of toxin.

EBC-1 xenograft = assay: Efficacy of BT1721 in EBC-1 xenograft model (Example 6); format: in vivo, Mus Musculus; conditions: for Tumor Size: Mean ± SEM
Protocol: The objective of this study was to evaluate the anti-tumor efficacy of BT1721 in EBC-1 xenograft model in female BALB/c nude mice.
The EBC-1 tumor cells were maintained in vitro as a monolayer culture in RPMI1640 medium supplemented with 10% heat inactivated fetal bovine serum at 37° C. in an atmosphere of 5% CO2 in air. The tumor cells were routinely subcultured twice weekly by trypsin-EDTA treatment. The cells growing in an exponential growth phase were harvested and counted for tumor inoculation.
Each mouse was inoculated subcutaneously at the right flank with EBC-1 tumor cells (10×10^6) in 0.2 ml of PBS for tumor development. The treatments were started on Day 7 after the tumor inoculation when the average tumor size reached approximately 152 mm^3. Each group consisted of 3 tumor-bearing mice. The testing articles were administrated to the mice according to the predetermined regimen as shown in the experimental design (Table 43).
All the procedures related to animal handling, care and the treatment in the study were performed according to the guidelines of the Association for Assessment and Accreditation of Laboratory Animal Care (AAALAC). At the time of routine monitoring, the animals were daily checked for any effects of tumor growth and treatments on normal behavior such as mobility, food and water consumption (by looking only), body weight gain/loss (body weights were measured every day), eye/hair matting and any other abnormal effect as stated in the protocol. Death and observed clinical signs were recorded on the basis of the numbers of animals within each subset.
The major endpoint was to see if the tumor growth could be delayed or mice could be cured. Tumor size was measured three times weekly in two dimensions using a caliper, and the volume was expressed in mm^3 using the formula: V=0.5 a×b^2 where a and b are the long and short diameters of the tumor, respectively. The tumor size was then used for calculations of T/C value. The T/C value (in percent) is an indication of antitumor effectiveness; T and C are the mean volumes of the treated and control groups, respectively, on a given day.
TGI was calculated for each group using the formula: TGI (%)=[1−(Ti−T0)/(Vi−V0)]×100; Ti is the average tumor volume of a treatment group on a given day, T0 is the average tumor volume of the treatment group on the day of treatment start, Vi is the average tumor volume of the vehicle control group on the same day with Ti, and V0 is the average tumor volume of the vehicle group on the day of treatment start.
Summary statistics, including mean and the standard error of the mean (SEM), are provided for the tumor volume of each group at each time point.
Statistical analysis of difference in tumor volume among the groups was conducted on the data obtained at the best therapeutic time point after the final dose.
A one-way ANOVA was performed to compare tumor volume among groups, and when a significant F-statistics (a ratio of treatment variance to the error variance) was obtained, comparisons between groups were carried out with Games-Howell test. All data were analyzed using Prism. P<0.05 was considered to be statistically significant.

What does the source list for `COc1cc2cc(c1Cl)N(C)C(=O)C[C@H](OC(=O)[C@H](C)N(C)C(=O)CCSC1CC(=O)N(CC3CCC(C(=O)NCCCC[C@H](NC(C)=O)C(=O)NCC(=O)N(C)CC(=O)N(C)CC(=O)N(C)CC(=O)N(C)CC(=O)N(C)CC(=O)N(C)CC(=O)N(C)CC(=O)N(C)CC(=O)N(C)CC(=O)N(C)CC(=O)NC(C)C(=O)N[C@H]4CSCc5cc6cc(c5)CSC[C@H](NC(=O)[C@@H](C)NC(=O)[C@H](Cc5cccc7ccccc57)NC(=O)[C@H](CCC(=O)O)NC(=O)[C@H](CC(N)=O)NC(=O)[C@@H](C)NC4=O)C(=O)N[C@@H](CCC(=O)O)C(=O)N[C@@H](CC(=O)O)C(=O)N[C@@H](Cc4ccccc4)C(=O)N[C@@H](Cc4ccc(O)cc4)C(=O)N[C@@H](CC(=O)O)C(=O)N[C@@H](C(C)(C)C)C(=O)N[C@H](C(N)=O)CSC6)CC3)C1=O)[C@@]1(C)O[C@H]1[C@H](C)[C@@H]1C[C@@](O)(NC(=O)O1)[C@H](OC)/C=C/C=C(\C)C2` (stereo partly shown) [BT1721] (Ac-K(X2)G[Sar][Sar][Sar][Sar][Sar][Sar][Sar][Sar][Sar][Sar][ξA]C[dA]NE[1Nal][dA]CEDFYD[Tle]C-NH2; linker 14-20-27 via TBMB)?
IC50 (HT1080 cell line): 8.9 nM; effect on tumor growth (EBC-1 xenograft; 1 mg/kg, 3 mg/kg and 10 mg/kg, day 14): didn't show any inhibitory effect on tumor growth; tumor volume trace over time (EBC-1 xenograft; 1 mg/kg, tiw, day 0): 164 ± 31 mm^3; tumor volume trace over time (EBC-1 xenograft; 1 mg/kg, tiw, day 2): 291 ± 57 mm^3; tumor volume trace over time (EBC-1 xenograft; 1 mg/kg, tiw, day 4): 367 ± 68 mm^3; tumor volume trace over time (EBC-1 xenograft; 1 mg/kg, tiw, day 7): 640 ± 39 mm^3; tumor volume trace over time (EBC-1 xenograft; 1 mg/kg, tiw, day 9): 784 ± 40 mm^3; tumor volume trace over time (EBC-1 xenograft; 1 mg/kg, tiw, day 11): 874 ± 50 mm^3; T/C (EBC-1 xenograft; 1 mg/kg, tiw, day 14): 22%; TGI (EBC-1 xenograft; 1 mg/kg, tiw, day 14): 82%; tumor volume trace over time (EBC-1 xenograft; 1 mg/kg, tiw, day 14): 981 ± 47 mm^3; Tumor Size (EBC-1 xenograft; 1 mg/kg, tiw, day 14): 981 ± 47 mm^3; tumor volume trace over time (EBC-1 xenograft; 3 mg/kg, tiw, day 0): 142 ± 18 mm^3; tumor volume trace over time (EBC-1 xenograft; 3 mg/kg, tiw, day 2): 207 ± 60 mm^3; tumor volume trace over time (EBC-1 xenograft; 3 mg/kg, tiw, day 4): 310 ± 61 mm^3; tumor volume trace over time (EBC-1 xenograft; 3 mg/kg, tiw, day 7): 531 ± 116 mm^3; tumor volume trace over time (EBC-1 xenograft; 3 mg/kg, tiw, day 9): 708 ± 132 mm^3; tumor volume trace over time (EBC-1 xenograft; 3 mg/kg, tiw, day 11): 761 ± 147 mm^3; T/C (EBC-1 xenograft; 3 mg/kg, tiw, day 14): 26%; TGI (EBC-1 xenograft; 3 mg/kg, tiw, day 14): 77%; tumor volume trace over time (EBC-1 xenograft; 3 mg/kg, tiw, day 14): 920 ± 210 mm^3; Tumor Size (EBC-1 xenograft; 3 mg/kg, tiw, day 14): 920 ± 210 mm^3; effect on tumor growth (EBC-1 xenograft; 10 mg/kg tiw): did not show any inhibitory effect on tumor growth; tumor volume trace over time (EBC-1 xenograft; 10 mg/kg, tiw, day 0): 160 ± 25 mm^3; tumor volume trace over time (EBC-1 xenograft; 10 mg/kg, tiw, day 2): 249 ± 82 mm^3; tumor volume trace over time (EBC-1 xenograft; 10 mg/kg, tiw, day 4): 407 ± 85 mm^3; tumor volume trace over time (EBC-1 xenograft; 10 mg/kg, tiw, day 7): 632 ± 149 mm^3; tumor volume trace over time (EBC-1 xenograft; 10 mg/kg, tiw, day 9): 735 ± 201 mm^3; tumor volume trace over time (EBC-1 xenograft; 10 mg/kg, tiw, day 11): 858 ± 72 mm^3; T/C (EBC-1 xenograft; 10 mg/kg, tiw, day 14): 6%; TGI (EBC-1 xenograft; 10 mg/kg, tiw, day 14): 96%; tumor volume trace over time (EBC-1 xenograft; 10 mg/kg, tiw, day 14): 1142 ± 147 mm^3; Tumor Size (EBC-1 xenograft; 10 mg/kg, tiw, day 14): 1142 ± 147 mm^3; Body Weight (EBC-1 xenograft; 1 mpk, tiw, day 0): 22.2 ± 0.7 g; Body Weight (% Change) (EBC-1 xenograft; 1 mpk, tiw, day 0): 0.0%; Body Weight (EBC-1 xenograft; 1 mpk, tiw, day 2): 22.0 ± 0.5 g; Body Weight (% Change) (EBC-1 xenograft; 1 mpk, tiw, day 2): −1.1 ± 0.7%; Body Weight (EBC-1 xenograft; 1 mpk, tiw, day 4): 22.4 ± 0.8 g; Body Weight (% Change) (EBC-1 xenograft; 1 mpk, tiw, day 4): 0.8 ± 2.3%; Body Weight (EBC-1 xenograft; 1 mpk, tiw, day 7): 22.5 ± 0.9 g; Body Weight (% Change) (EBC-1 xenograft; 1 mpk, tiw, day 7): 1.3 ± 1.4%; Body Weight (EBC-1 xenograft; 1 mpk, tiw, day 9): 23.2 ± 0.8 g; Body Weight (% Change) (EBC-1 xenograft; 1 mpk, tiw, day 9): 4.4 ± 0.8%; Body Weight (EBC-1 xenograft; 1 mpk, tiw, day 11): 22.9 ± 1.0 g; Body Weight (% Change) (EBC-1 xenograft; 1 mpk, tiw, day 11): 3.1 ± 1.7%; Body Weight (EBC-1 xenograft; 1 mpk, tiw, day 14): 23.3 ± 1.1 g; Body Weight (% Change) (EBC-1 xenograft; 1 mpk, tiw, day 14): 4.6 ± 2.0%; Body Weight (EBC-1 xenograft; 3 mpk tiw, day 0): 22.9 ± 0.4 g; Body Weight (% Change) (EBC-1 xenograft; 3 mpk tiw, day 0): 0.0%; Body Weight (EBC-1 xenograft; 3 mpk tiw, day 2): 22.3 ± 0.6 g; Body Weight (% Change) (EBC-1 xenograft; 3 mpk tiw, day 2): −2.8 ± 1.3%; Body Weight (EBC-1 xenograft; 3 mpk tiw, day 4): 22.3 ± 0.8 g; Body Weight (% Change) (EBC-1 xenograft; 3 mpk tiw, day 4): −2.8 ± 1.9%; Body Weight (EBC-1 xenograft; 3 mpk tiw, day 7): 23.1 ± 0.7 g; Body Weight (% Change) (EBC-1 xenograft; 3 mpk tiw, day 7): 0.8 ± 1.8%; Body Weight (EBC-1 xenograft; 3 mpk tiw, day 9): 23.9 ± 1.0 g; Body Weight (% Change) (EBC-1 xenograft; 3 mpk tiw, day 9): 4.0 ± 2.8%; Body Weight (EBC-1 xenograft; 3 mpk tiw, day 11): 24.0 ± 1.0 g; Body Weight (% Change) (EBC-1 xenograft; 3 mpk tiw, day 11): 4.7 ± 2.7%; Body Weight (EBC-1 xenograft; 3 mpk tiw, day 14): 24.6 ± 1.0 g; Body Weight (% Change) (EBC-1 xenograft; 3 mpk tiw, day 14): 7.2 ± 2.9%; Body Weight (EBC-1 xenograft; 10 mpk tiw, day 0): 23.2 ± 0.5 g; Body Weight (% Change) (EBC-1 xenograft; 10 mpk tiw, day 0): 0.0%; Body Weight (EBC-1 xenograft; 10 mpk tiw, day 2): 23.2 ± 0.3 g; Body Weight (% Change) (EBC-1 xenograft; 10 mpk tiw, day 2): 0.0 ± 1.5%; Body Weight (EBC-1 xenograft; 10 mpk tiw, day 4): 23.2 ± 0.4 g; Body Weight (% Change) (EBC-1 xenograft; 10 mpk tiw, day 4): −0.3 ± 0.5%; Body Weight (EBC-1 xenograft; 10 mpk tiw, day 7): 23.9 ± 0.5 g; Body Weight (% Change) (EBC-1 xenograft; 10 mpk tiw, day 7): 2.8 ± 0.6%; Body Weight (EBC-1 xenograft; 10 mpk tiw, day 9): 24.4 ± 0.4 g; Body Weight (% Change) (EBC-1 xenograft; 10 mpk tiw, day 9): 5.1 ± 0.6%; Body Weight (EBC-1 xenograft; 10 mpk tiw, day 11): 24.4 ± 0.6 g; Body Weight (% Change) (EBC-1 xenograft; 10 mpk tiw, day 11): 5.0 ± 0.3%; Body Weight (EBC-1 xenograft; 10 mpk tiw, day 14): 25.3 ± 0.5 g; Body Weight (% Change) (EBC-1 xenograft; 10 mpk tiw, day 14): 8.8 ± 0.7%; body weight effect (EBC-1 xenograft; mouse, in vivo): maintained their bodyweight well
